Assay results from patent publication US20230331821A1.
Read-outs that look alike come from different tables or passages of the source.

What was measured:
Settings in all cases: remark: other sources report otherwise
[1] = target: T1, SARS-CoV-2 Spike (S) protein, strain BetaCoV/Wuhan-Hu-1/2019, full length (SARS-CoV-2 Wuhan-Hu-1), P0DTC2; assay: flow cytometry, ExpiCHO cells expressing SARS-CoV-2 S; % positive cells
[2] = target: T1, SARS-CoV-2 Spike (S) protein, strain …
[3] = target: T1, SARS-CoV-2 Spike (S) protein, strain …; assay: flow cytometry, ExpiCHO cells transfected with SARS-CoV-2 S; MFI (AF647)
[4] = target: T1, SARS-CoV-2 Spike (S) protein, strain …; remark: listed apart in the source

B1: S306 (antibody)
heavy: QVQLVQSGAEVKKPGASVKVSCKASTYTFTSFGISWVRQAPGQGLEWMGWITTYSGDTNYAQKFQGRVTMTTDTSTNTAYMELRSLRSDDTAVYYCASDYFDSSGYYHSFDYWGQGTLVTVSS
light: EIVLTQSPDTLSLSPGERATLSCRASQSVSSYLAWYQQRPGQAPRLLIYDASKRATGIPARFSGSGSGTDFTLTISSLEPEDFAVYYCQQRSNWPPGCSFGQGTKVEIK
- EC50 (read off the curve) [1]: 0.001 µg/mL
- EC50 (read off the curve) [2]: 0.2 µg/mL
- EC50 (read off the curve) [3]: 0.2 µg/mL

B2: SARS-CoV-2 S306 mAb (B cell supernatant) (antibody, V domains shown)
VH: B1 heavy
VL: B1 light
- POS [4]: 57.6
